In the supplement of paper PMC5998384:

Key:
HeLa Kyoto [1] = test: thermal stability score vs G1/S (z-score of summed log2 fold changes over temperatures); higher = more thermally stable than in G1/S
HeLa Kyoto [2] = test: melting temperature (median over replicates), in situ; higher = more thermally stable
HeLa Kyoto [3] = test: solubility in G1/S (NP-40 vs SDS abundance) (log2 ratio); higher = more soluble; conditions: cell cycle stage: G1/S
HeLa Kyoto [4] = test: solubility change mitosis vs G1/S (difference of NP-40 vs SDS log2 ratios) (log2 ratio difference); higher = more soluble in mitosis
[5] = cell cycle stage: early G1 (4.5 h after nocodazole release)
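Wherever melting temperature (median over replicates), in situ is given: HeLa Kyoto cells synchronized by double thymidine or nocodazole block, proteins quantified by TMT10plex mass spectrometry, three independent biological replicates.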
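Wherever solubility change mitosis vs G1/S (difference of NP-40 vs SDS log2 ratios) is given: synchronized HeLa Kyoto cells (double thymidine block for G1/S, nocodazole release for mitosis), protein amounts in NP-40 versus SDS lysates quantified by mass spectrometry, three biological replicates.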
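Wherever solubility in G1/S (NP-40 vs SDS abundance) is given: HeLa Kyoto cells arrested at G1/S by double thymidine block, proteins quantified by TMT10plex mass spectrometry in mild NP-40 versus SDS extracts, three biological replicates.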
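Wherever thermal stability score vs G1/S (z-score of summed log2 fold changes over temperatures) is given: synchronized HeLa Kyoto cells, proteins quantified by TMT10plex mass spectrometry, three biological replicates, mitosis taken 0.5 h after nocodazole release, G1/S directly after double thymidine block.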

Substance | thermal stability score (HeLa Kyoto [1]; [5]) | thermal stability score (HeLa Kyoto [1]; cell cycle stage: mitosis) | melting temperature (HeLa Kyoto [2]; cell cycle stage: G1/S) [°C] | melting temperature (HeLa Kyoto [2]; cell cycle stage: mitosis) [°C] | solubility in G1/S (log2) (HeLa Kyoto [3]) | solubility change mitosis (log2) (HeLa Kyoto [4])
MIAAQLLAYYFTELKDDQVKKIDKYLYAMRLSDETLIDIMTRFRKEMKNGLSRDFNPTATVKMLPTFVRSIPDGSEKGDFIALDLGGSSFRILRVQVNHEKNQNVHMESEVYDTPENIVHGSGSQLFDHVAECLGDFMEKRKIKDKKLPVGFTFSFPCQQSKIDEAILITWTKRFKASGVEGADVVKLLNKAIKKRGDYDANIVAVVNDTVGTMMTCGYDDQHCEVGLIIGTGTNACYMEELRHIDLVEGDEGRMCINTEWGAFGDDGSLEDIRTEFDREIDRGSLNPGKQLFEKMVSGMYLGELVRLILVKMAKEGLLFEGRITPELLTRGKFNTSDVSAIEKNKEGLHNAKEILTRLGVEPSDDDCVSVQHVCTIVSFRSANLVAATLGAILNRLRDNKGTPRLRTTVGVDGSLYKTHPQYSRRFHKTLRRLVPDSDVRFLLSESGSGKGAAMVTAVAYRLAEQHRQIEETLAHFHLTKDMLLEVKKRMRAEMELGLRKQTHNNAVVKMLPSFVRRTPDGTENGDFLALDLGGTNFRVLLVKIRSGKKRTVEMHNKIYAIPIEIMQGTGEELFDHIVSCISDFLDYMGIKGPRMPLGFTFSFPCQQTSLDAGILITWTKGFKATDCVGHDVVTLLRDAIKRREEFDLDVVAVVNDTVGTMMTCAYEEPTCEVGLIVGTGSNACYMEEMKNVEMVEGDQGQMCINMEWGAFGDNGCLDDIRTHYDRLVDEYSLNAGKQRYEKMISGMYLGEIVRNILIDFTKKGFLFRGQISETLKTRGIFETKFLSQIESDRLALLQVRAILQQLGLNSTCDDSILVKTVCGVVSRRAAQLCGAGMAAVVDKIRENRGLDRLNVTVGVDGTLYKLHPHFSRIMHQTVKELSPKCNVSFLLSEDGSGKGAALITAVGVRLRTEASS [HK1] | -0.647 | -0.641 | 51.5 | 51.9 | -0.0302 | -0.149
MICAL3 | -0.909 | -0.953 | 51.4 | 50.5 | -0.213 | -0.0995
MIIYRDLISHDEMFSDIYKIREIADGLCLEVEGKMVSRTEGNIDDSLIGGNASAEGPEGEGTESTVITGVDIVMNHHLQETSFTKEAYKKYIKDYMKSIKGKLEEQRPERVKPFMTGAAEQIKHILANFKNYQFFIGENMNPDGMVALLDYREDGVTPYMIFFKDGLEMEKC [TPT1] | 0.357 | 0.0736 | 53.5 | 52.9 | 0.476 | -0.0912
MIKKFDKKDEESGSGSNPFQHLEKSAVLQEARIFNETPINPRRCLHILTKILYLLNQGEHFGTTEATEAFFAMTRLFQSNDQTLRRMCYLTIKEMATISEDVIIVTSSLTKDMTGKEDVYRGPAIRALCRITDGTMLQAIERYMKQAIVDKVSSVSSSALVSSLHMMKISYDVVKRWINEAQEAASSDNIMVQYHALGVLYHLRKNDRLAVSKMLNKFTKSGLKSQFAYCMLIRIASRLLKETEDGHESPLFDFIESCLRNKHEMVIYEAASAIIHLPNCTARELAPAVSVLQLFCSSPKPALRYAAVRTLNKVAMKHPSAVTACNLDLENLITDSNRSIATLAITTLLKTGSESSVDRLMKQISSFVSEISDEFKVVVVQAISALCQKYPRKHSVMMTFLSNMLRDDGGFEYKRAIVDCIISIVEENPESKEAGLAHLCEFIEDCEHTVLATKILHLLGKEGPRTPVPSKYIRFIFNRVVLENEAVRAAAVSALAKFGAQNESLLPSILVLLQRCMMDTDDEVRDRATFYLNVLQQRQMALNATYIFNGLTVSVPGMEKALHQYTLEPSEKPFDMKSIPLAMAPVFEQKAEITLVATKPEKLAPSRQDIFQEQLAAIPEFLNIGPLFKSSEPVQLTEAETEYFVRCIKHMFTNHIVFQFDCTNTLNDQLLEKVTVQMEPSDSYEVLSCIPAPSLPYNQPGICYTLVRLPDDDPTAVAGSFSCTMKFTVRDCDPNTGVPDEDGYDDEYVLEDLEVTVSDHIQKVLKPNFAAAWEEVGDTFEKEETFALSSTKTLEEAVNNIITFLGMQPCERSDKVPENKNSHSLYLAGIFRGGYDLLVRSRLALADGVTMQVTVRSKERTPVDVILASVG [COPG2] | 0.652 | 0.0351 | 52 | 51.8 | -0.192 | -0.304
MILNSLSLCYHNKLILAPMVRVGTLPMRLLALDYGADIVYCEELIDLKMIQCKRVVNEVLSTVDFVAPDDRVVFRTCEREQNRVVFQMGTSDAERALAVARLVENDVAGIDVNMGCPKQYSTKGGMGAALLSDPDKIEKILSTLVKGTRRPVTCKIRILPSLEDTLSLVKRIERTGIAAIAVHGRKREERPQHPVSCEVIKAIADTLSIPVIANGGSHDHIQQYSDIEDFRQATAASSVMVARAAMWNPSIFLKEGLRPLEEVMQKYIRYAVQYDNHYTNTKYCLCQMLREQLESPQGRLLHAAQSSREICEAFGLGAFYEETTQELDAQQARLSAKTSEQTGEPAEDTSGVIKMAVKFDRRAYPAQITPKMCLLEWCRREKLAQPVYETVQRPLDRLFSSIVTVAEQKYQSTLWDKSKKLAEQAAAIVCLRSQGLPEGRLGEESPSLHKRKREAPDQDPGGPRAQELAQPGDLCKKPFVALGSGEESPLEGW [DUS2] | 0.209 | 0.349 | 50.3 | 50.9 | -0.0157 | -0.0821
